According to US20230374458A1, “COMPOSITIONS AND METHODS FOR GENERATING HUMAN YOLK SAC-LIKE HEMATOPOIETIC CELLS” (UNIVERSITY HEALTH NETWORK, priority 2020, published 2023):

Assays:
CHOPWT10 human iPSC line = experiment: Induction of KDR+CD235a/b+ mesoderm from CHOPWT10 iPSCs (Activin A titration, flow cytometry); assay type: cell-based
Protocol: (§1) hPSC differentiation to the hematopoietic lineage was performed in StemPro-34 media supplemented with penicillin/streptomycin (1%, ThermoFisher), L-glutamine (2 mM, ThermoFisher), ascorbic acid (50 μg/mL, Millipore Sigma), transferrin (150 μg/mL, ROCHE), monothioglycerol (50 μg/mL, Millipore Sigma) and other stage-specific factors for example as described below. Differentiation cultures were maintained in hypoxic conditions (37° C., 5% CO2, 5% O2) unless otherwise indicated. On day 0, hPSC cultures at 80-90% confluency were treated with TrypLE for 3 minutes at 37° C. Thereafter, the 80-90% of the TrypLE was aspirated and the cultures were incubated at 37° C. for an additional 2 minutes. […]
(§2) EBs prior to day 9 of differentiation, monolayer cultures and cultures aggregated after cell sorting were dissociated with Trypsin (Corning) for 5 minutes at 37° C. […] For fluorescence-activated cell sorting (FACS), cells were stained, sorted and collected in StemPro-34 media supplemented with penicillin/streptomycin (1%), L-glutamine (2 mM) and DNaseI. […] Thereafter, the sorted cells were counted and resuspended at 250,000 cells/mL in StemPro-34 media supplemented with recombinant factors appropriate for the day of differentiation. […]

[1] = tested on: H1 human embryonic stem cell (hESC) line; experiment: Induction of KDR+CD235a/b+ mesoderm from H1 hESCs (Activin A titration, flow cytometry); assay type: cell-based
Protocol: as §1, §2

B1: Activin A: activin receptor agonist; human Activin A (Uniprot accession number: P08476), recombinant, from R&D Systems (protein, UniProt P08476 311-426, looked up)
Inhibin beta A chain: GLECDGKVNICCKKQFFVSFKDIGWNDWIIAPSGYHANYCEGECPSHIAGTSGSSLSFHSTVINHYRMRGHSPFANLKSCCVPTKLRPMSMLYYDDGQNIIKKDIQNMIVEECGCS
proportion of KDR+CD235a/b+ cells (CHOPWT10 human iPSC line; 2 ng/mL Activin A, CHOPWT10 human iPSC line, day 4): greater than 30% | proportion of KDR+CD235a/b+ cells at day 4 of differentiation (CHOPWT10 human iPSC line; 2 or 4 ng/mL Activin A within 0 to 10 ng/mL titration, with BMP4 10 ng/mL and FGF2 5 ng/mL, days 1 to 4): highest proportion | proportion of KDR+CD235a/b+ cells ([1]; 6 ng/mL Activin A with 10 ng/mL BMP4 and 5 ng/mL FGF2, day 4 of differentiation, H1): greater than 30% | frequency of CD235a/b+ cells ([1]; Activin A 0 to 10 ng/mL with BMP4 10 ng/mL and FGF2 5 ng/mL from day 1 of differentiation): increased in an Activin A dose-dependent manner and plateaued when its concentration exceeded 6 ng/mL
